Measured values taken from the supplement of paper PMC9170038.

Each sequence was assayed on MS2 coat protein (assay: apparent KD of MS2 coat protein, switch OFF state (with FMN for OFF switches, without FMN for ON switches); designed switch direction (-1 OFF switch, 1 ON switch): -1; higher = weaker reporter binding). Conditions: FMN input: 0 or 200 uM; Eterna round: R93 (includes R88 designs).
How it was run: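 Designed RNA switches were transcribed on-chip from Illumina sequencing clusters. They were then titrated with SNAP-549-labelled MS2 coat protein (twofold steps, 0.7 or 1.5 nM to 3 µM; 0.8–1.5 h to 10–20 min per step) in 100 mM Tris-HCl pH 7.5, 80 mM KCl, 4 mM MgCl2, without or with constant ligand. Apparent KD is the per-design median of normalised cluster binding-curve fits.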

Sequence	apparent KD of MS2 coat protein [nM]
AACAGUACAGGAUAUACAUGAGGAUCACCCAUGUAAAAAAGGGCUGGCGUACCAGAAAGUAGAAGGGUACUGGA [Moding Maslow revisited (73) 9]	88.1
GAAAAGUGAGGAUAUAGCAAAGGUCACGAAAGUGACAAAGGCUAGAAGGCACAUGAGGAUCACCCAUGUCCAAG [Mat - Exclusion 4 - Eli mod - D99]	49.9
AAGAACCGAGGAUAUACAUGAAAGAAAGAAAAGAAAAGAAAACAUGAGGAUCACCCAUGUAGAAGGCGGAAGAA [EteRNA is fun!]	35.3
AUAGGCCUAGGAUAUACAUGAGGAUCACCCAUGUUAACACUGCAAUCAAGUUAAUAUUGUAGAAGGAGGAAUAA [JR_Exc003_Sub310]	26.1
AAAAAACAUGAGGAUCACCCAUGUAAGGAUAUGUAAAAUAAAAGAAAAAUAAAGAAAAGCAGAAGGUACAAAAA [JL wbt mod 19]	25
AGCUAGUCAGGAUAUACGAAAAUGUCAGAAGCUGAGAAGGGACAUGAGGAUCACCCAUGUAGAAGGGACUAGCA [Diamond 37]	316
CUGCAGUAAGGAUAUACAUGAGGAUCACCCAUGUAGGAACUUACAGAACGAAACGCAUGUAGAAGGUACCAGAA [Enususge]	14.3
AAGAACACAGGAUAUACAUGAGGAUCACCCAUGUAAAAGAAAGAAAGGGAAAAGAAAAGUAGAAGGGUGAAGAA [Aakheperre Pasebakhenniut I]	72.6
AAGGGACAUGAGGAUCACCCAUGUCAGGAUAUGAUGCGAAUAAAGAAAGAAUAAAGCAUCAGAAGGGACAAAAA [Mat - Exclusion 1 - Eli mod - D63]	55.7
AAAGGACGAGGAUAUACAUGAGGAUCACCCAUGUAAAAAACAUAAAAAAAGAAAUUAUGUAGAAGGCGUCCAAA [69%, Moding Meechl, 4]	17.8
AACUAGCUAGGAUAUACAUGAGGAUCACCCAUGUAAAAAAAAAAAAAAAGAUUUAUAUGUAGAAGGAGCUAGUA [Design 3 - Brourd - Exclusion 3]	61.8
GUAAACCUAGGAUAUACAUGAGGAUCACCCAUGUAAAAUUUCAUAAAAAGAAAAUCAAGUAGAAGGAGGUAGAU [JR_Exc003_Sub1223]	24.8
AGCAAACAUGAGGAUCACCCAUGUUAGGAUAUGAACGAAAAUAAAUAAAAAUAAAAGUUCAGAAGGGACGAGCA [66%, Wbt, 28]	37.7
AUAAAACAUGAGGAUCACCCAUGUGAGGAUAUGCGAAAGAAAGAAAGAAAGAAAGAAAGCAGAAGGCACAAUAA [Amethyst 42]	32.6
AGCAAGAGAGGAUAUACAUAGGAAAAAAAAGUCAGAUCCCUACAUGAGGAUCACCCAUGUAGAAGGCUCUGGCA [Ex2 Design 154: Sub-opt 18]	12.2
AAGACUAGAGGAUAUACAUGAGGAUCACCCAUGUAACUGUCAGGUGACUGACGGAGAAGUAGAAGGCUAGUCAA [Mat - Exclusion 3 - JL mod - D83]	19.9
AAAGGACGAGGAUAUACAUGAGGAUCACCCAUGUAAAGGGCAUAAAAAAAGAACUUAUGUAGAAGGCGUCCAAA [Mat - Exclusion 3 - Eli mod - D95]	26.8
AAAACUGGAGGAUAUACGUACAUGUCGAAAGACGUGAAGGGACAUGAGGAUCACCCAUGUAGAAGGCUAGAAAA [Mat - Exclusion 2 - JL mod - D71]	87.6
GGAGUGCAAGGAUAUACAUGAGGAUCACCCAUGUGAGAGAAAAAAGUGAGAAAGAAAAGUAGAAGGUGCGUUCG [salish99-ex3-131]	44.8
AGGCUCCUAGGAUAUACUGGCUGGCCUCCACAAAAGAAAAUACAUGAGGAUCACCCAUGUAGAAGGAGGAGUGG [Geesar]	22.7
UAAAAACAUGAGGAUCACCCAUGUGAGGAUAUCGAAAAAAAAAAAUUAAAAAAGGAAGCGAGAAGGUACGGGAU [close, no cigar]	33.2
AGGUACCUAGGAUAUACAUGAGGAUCACCCAUGUCACAAAUAAAACACAGGUAUCCUGGUAGAAGGAGGAACAA [Veinle]	36.5
CAAAGGUGAGGAUAUGCAUAACUAUGACGAAAGUCAUAAACACAUGAGGAUCACCCAUGUAGAAGGCACCACAA [e2-2]	18.8

Sequence	apparent KD of MS2 coat protein [nM]
AGUCGGCGAGGAUAUACAUGAGGAUCACCCAUGUGAGAGAAAAAAGUGAGCAAGAAAAGUAGAAGGCGCUGACA [JL Lego Mod 2]	154
GGUUGGCGAGGAUAUACAUGAGGAUCACCCAUGUGAGAGAAAAAAGUGAGAUAGAAAAGUAGAAGGCGCUGACG [salish99-ex3-34]	286
AAGAAGUGAGGAUAUACAUGAGGAUCACCCAUGUAAAAGAAAGAAAGGGAAAAGAAAAGUAGAAGGCGCAAGAA [Aakheperre Shoshenq V]	44.7
AAGAAGUAAGGAUAUGCUGCUCGUCACAAAAGUGAUGAGUAGCAGAAGGUACAUGAGGAUCACCCAUGUAAAGA [JL eternac mod 3]	20.3
AAGAACCUAGGAUAUACAUGAGGAUCACCCAUGUAAAAGAAAGAAAAGGGAAAGAAAAGUAGAAGGAGGAAGAA [Menmire-setpenre Amenmesse]	22.2
AGAAAGUCAGGAUAUGCAGACAAAGCAAAAAAGCAAUGUCUGCAGAAGGGACAUGAGGAUCACCCAUGUAAAGA [Mat - Exclusion 4 - Mayanna - D117]	47.5
AGAAAGUCAGGAUAUACGAAUAAGAAUAAAGACGAGAACGGACAUGAGGAUCACCCAUGUAGAAGGGACAAGAA [Diamond 16]	21.8
AAAAGUAGAGGAUAUACAUGAGGAUCACCCAUGUAGAAAGGAAGUGUAUAUAUGGCAUGUAGAAGGCUACAUGA [Banishment 8 - Jieux - Exclusion 3]	34.2
AUCUAGUCAGGAUAUGACUACAUAAAAAAAAAAAAAUGUAGUCAGAAGGGACAUGAGGAUCACCCAUGUACUAA [HSL_Exclusion 4 64% 1]	24.8
AAAAAGUGAGGAUAUGCGCUGUCAAGUAGACACGAGCAGUCGUAGAAGGCACAUGAGGAUCACCCAUGUUCAAA [EX4 Malc#22]	16
AAAAAGUUAGGAUAUACAUGAGGAUCACCCAUGUACACAUAUGGAGAAUAUGGUAGUAGUAGAAGGGACAAAAA [EX2 Malc#15]	31.1
UGUUGGCGAGGAUAUACAUGAGGAUCACCCAUGUGAGAGAAAAAAGUGAGAAAGAAAAGUAGAAGGCGCUGACC [salish99-ex3-10]	203
AAAAAACAUGAGGAUCACCCAUGUAAGGAUAUGCCAACAAACAAACAAACAAAAAAAAGCAGAAGGUACAAAAA [Amethyst 70]	24.1
ACUAAUGAAGGAUAUACAAACAACAAACACUCAACACACACACAUGAGGAUCACCCAUGUAGAAGGUCAAACAU [JR_Exc002_Sub1204]	18.2
AAAAAACAUGAGGAUCACCCAUGUGAGGAUAUCCAAAAGAAAAGAAAAGAAAGAAGAAGGAGAAGGCACAAGAA [Khufu]	47.9
AAAAAACAUGAGGAUCACCCAUGUGAGGAUAUGGAAAGAAAAAAAAAGAAAGAAAAAACCAGAAGGCACAAAAA [Amethyst 30]	23.8
AUAAACGGAGGAUAUACAUGAGGAUCACCCAUGUAAAUAAAUAAAAGUUCCUCAAUAAGUAGAAGGUCGAAUAA [JR_Exc003_Sub011]	13
UGCAUGUAAGGAUAUGCAACCGGCGCACAUUAGCAGGUCAAGCAGAAGGUACAUGAGGAUCACCCAUGUGUCCG [Lalebiis]	99.4
AGCACGUCAGGAUAUACGAACAAAACGGGAGAACUAAAGGGACAUGAGGAUCACCCAUGUAGAAGGGACAAGCA [Diamond 91]	91.1
AGUUGGCGAGGAUAUACAUGAGGAUCACCCAUGUGAGAGAAAAAAGUGGAAAAGAAAAGUAGAAGGCGCUGACA [Mat - Exclusion 3 - Lego mod - D90]	119
AACUGUACAGGAUAUACAUGAGGAUCACCCAUGUGAGAAUUAAGUGGCGUACCACAAAGUAGAAGGGUACAGGA [Mat - Exclusion 3 - JL mod - D15]	192
AAGAAGAGAGGAUAUACUAAAGAAAUGAAAAGAAAGAAAGAACAUGAGGAUCACCCAUGUAGAAGGCUCAAGAA [Snaaib]	18.1
